Data on one molecule can be found in patent US20260116951A1 (DUCENTIS BIOTHERAPEUTICS, published 2026).

The target of assay [1] is T1, Recombinant Human CD200R, His-tagged (Creative Biomart CD200R1-320H) (human, UniProt Q8TD46 27-266).
T1 construct: Bought; also called human CD200 receptor; not shown: His tag
T1 sequence (looked up): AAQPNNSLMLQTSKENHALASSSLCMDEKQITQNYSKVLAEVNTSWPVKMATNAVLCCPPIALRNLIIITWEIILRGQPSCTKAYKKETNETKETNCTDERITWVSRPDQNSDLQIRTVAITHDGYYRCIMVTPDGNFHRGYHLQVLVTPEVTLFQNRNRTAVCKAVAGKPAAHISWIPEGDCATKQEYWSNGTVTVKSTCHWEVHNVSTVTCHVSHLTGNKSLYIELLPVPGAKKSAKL
The assay is described as follows: SPR, CD200R flowed over immobilized CD200-Fc, 25 C, 1:1 fit, mean of 2 experiments with standard deviation. On the procedure: (§1) For human CD200 constructs: anti-human Fc (GE Healthcare) was covalently immobilized on a BIAcore CM5 sensor chip (Cytiva, BR100530) by amine coupling using a Cytiva kit (BR100839) following the manufacturer's instructions, targeting immobilization of 8,000-11,000 RU. CD200-Fc proteins were diluted to 0.5 μg/mL to 4 μg/mL in running Buffer (1×HBS-EP+pH7.4 (Cytiva BR100669), HEPES Buffered Saline pH 7.4 containing 3 mM EDTA and 0.05% v/v Surfactant P20) and flowed for 25 to 100 seconds at 10 μL/min over the immobilized Anti-Human IgG Fc, with a stabilization time of 60 seconds. Between 35 and 250 RUs of CD200-Fc were captured, with higher RUs used for cynomolgus CD200R binding experiments. […] Analysis temperature was 25° C. This was followed by regeneration of the surface with 30-90 second pulse of 3M MgCl₂ flowed at […] flow rate followed by stabilization of the surface with 60 second flow of running buffer.
(§2) Curves obtained were fitted to 1:1 Langmuir binding model by setting Rmax and RI as local parameters. Rate equations using standard parameters (e.g. ligand concentration, time) were used for iterative curve fitting. […] Means of 2 experiments carried out on the same day are shown with standard deviation. Residue numbering for CD200 proteins refers to the pre-protein, containing a signal peptide which is cleaved during insertion into the endoplasmic reticulum.
For orientation: In SPR one partner is held on a chip, and binding of the other changes the refractive index at the surface.

Assay [2] deals with T2, Recombinant Cyno CD200R, His-tagged (Creative Biomart CD200R1-3483C) (cynomolgus monkey).
T2 construct: Bought; also called cynomolgus CD200R1; cynomolgus CD200R
In words: SPR (BIAcore T200), CD200-Fc captured on anti-human Fc, cyno CD200R flowed, 25 C, 1:1 fit. The method, then: (§3) The experiments were performed on a GE Healthcare BIAcore T200. Human, cynomolgus and mouse CD200R proteins were purchased from Creative Biomart (CD200R1-320H, CD200R1-3483C, CD200R1-3280M). All measurements were performed in duplicate.
For human CD200 constructs: anti-human Fc (GE Healthcare) was covalently immobilized on a BIAcore CM5 sensor chip (Cytiva, BR100530) by amine coupling using a Cytiva kit (BR100839) following the manufacturer's instructions, targeting immobilization of 8,000-11,000 RU. CD200-Fc proteins were diluted to 0.5 μg/mL to 4 μg/mL in running Buffer (1×HBS-EP+pH7.4 (Cytiva BR100669), HEPES Buffered Saline pH 7.4 containing 3 mM EDTA and 0.05% v/v Surfactant P20) and flowed for 25 to 100 seconds at 10 μL/min over the immobilized Anti-Human IgG Fc, with a stabilization time of 60 seconds. […]
For mouse CD200 constructs, muCD200R-Fc (Creative Biomart CD200R1-458M) diluted to 1 μg/mL in running buffer was flowed over the immobilized Anti-Human IgG Fc, with CD200 monomers serially diluted and flowed over captured CD200R. […] Data analysis: experimental sensorgrams were analyzed in BIAevaluation software (GE Healthcare). […] Closeness of fit was determined by algorithms provided by the manufacturer in the BIAevaluation software, and data accepted if the Chi² value was less than 10% of Rₘₐₓ, and the U value was less than or equal to 15.

The target of assay [3] is T2, Recombinant Cyno CD200R, His-tagged …. The assay is described as follows: SPR (BIAcore T200), CD200-Fc captured on anti-human Fc, cyno CD200R flowed, 25 C, 1:1 fit, mean of two runs. The method, then: as §3, §1
For mouse CD200 constructs, muCD200R-Fc (Creative Biomart CD200R1-458M) diluted to 1 μg/mL in running buffer was flowed over the immobilized Anti-Human IgG Fc, with CD200 monomers serially diluted and flowed over captured CD200R. Other details were as above. Data analysis: experimental sensorgrams were analyzed in BIAevaluation software (GE Healthcare). The curves obtained were fitted to 1:1 Langmuir binding model by setting Rmax and RI as local parameters. Rate equations using standard parameters (e.g. ligand concentration, time) were used for iterative curve fitting. Closeness of fit was determined by algorithms provided by the manufacturer in the BIAevaluation software, and data accepted if the Chi² value was less than 10% of Rₘₐₓ, and the U value was less than or equal to 15.

Assay [4] addresses T1, Recombinant Human CD200R, His-tagged …. In words: SPR, CD200R flowed over immobilized CD200-Fc, 25 C, 1:1 fit; reference is wild-type CD200-Fc DS-155. The method, then:
as §1, §2

Assay [5] deals with T2, Recombinant Cyno CD200R, His-tagged …. The assay is described as follows: SPR, cyno CD200R1 flowed over immobilized CD200-Fc, 25 C, 1:1 fit, mean of 2 experiments with standard deviation. On the procedure:
as §1, §2

Assay [6] addresses T3, Human CD200R, full length, on transduced U937 cells (U937-CD200R) (human, UniProt Q8TD46 25-348).
T3 construct: whole, on cells; also called U937-CD200R cells; CD200R-expressing U937 cells
T3 sequence (looked up): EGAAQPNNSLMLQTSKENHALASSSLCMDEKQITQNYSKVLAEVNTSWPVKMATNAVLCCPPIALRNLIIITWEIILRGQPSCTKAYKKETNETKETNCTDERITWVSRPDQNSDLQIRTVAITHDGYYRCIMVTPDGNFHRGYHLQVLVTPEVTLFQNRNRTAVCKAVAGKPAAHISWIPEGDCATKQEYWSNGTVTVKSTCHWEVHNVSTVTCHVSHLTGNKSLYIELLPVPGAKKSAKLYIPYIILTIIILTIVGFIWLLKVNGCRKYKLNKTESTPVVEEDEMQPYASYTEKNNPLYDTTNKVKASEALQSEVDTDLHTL
In words: Flow cytometry on U937-CD200R cells, 4 hours incubation at 37 C, fluorescent anti-human secondary antibody. On the procedure: Construct treatment (50 μL) was performed starting from 10 μg/mL with 3-fold dilutions up to 10 concentrations with FACS buffer and incubated for 1-hour, 4-hours and 24-hours at 37° C. At the end of each time point, cells were collected and washed. 10 μg/mL of anti-human secondary antibody was added and incubated for 30 minutes at 4° C. Cells were washed post incubation and stained to check viability (1 μL dye per million cells per mL 1×PBS) for 20 minutes at 4° C. Cells were washed and fixed with Fixation buffer (100 μL per test) at 4° C. for 20 minutes. Post incubation, cells were washed and the pellet was re-suspended in FACS buffer (100 μL per test) for data acquisition on flow cytometer.
In general terms: Flow cytometry measures light scatter and fluorescence of single cells or particles in a stream.

Assay [7] deals with T1, Recombinant Human CD200R, His-tagged …. The assay is described as follows: SPR, CD200R flowed over immobilized CD200-Fc, 25 C, 1:1 fit. The method, then:
as §1, §2

B1: DS-118 (mutated human CD200-Fc fusion protein, K130Y, I131Y, IgG4 S228P Fc) (Fc fusion)
chain: QVQVVTQDEREQLYTPASLKCSLQNAQEALIVTWQKKKAVSPENMVTFSENHGVVIQPAYKDKINITQLGLQNSTITFWNITLEDEGCYMCLFNTFGFGYYSGTACLTVYVQPIVSLHYKFSEDHLNITCSATARPAPMVFWKVPRSGIENSTVTLSHPNGTTSVTSILHIKDPKNQVGKEVICQVLHLGTVTDFKQTVNKGPPCPPCPAPEFLGGPSVFLFPPKPKDTLMISRTPEVTCVVVDVSQEDPEVQFNWYVDGVEVHNAKTKPREEQFNSTYRVVSVLTVLHQDWLNGKEYKCKVSNKGLPSSIEKTISKAKGQPREPQVYTLPPSQEEMTKNQVSLTCLVKGFYPSDIAVEWESNGQPENNYKTTPPVLDSDGSFFLYSRLTVDKSRWQEGNVFSCSVMHEALHNHYTQKSLSLSLGK
notes: also called mutated CD200-Fc; mutant CD200-Fc
Turning to B1, the values for the dissociation constant Kd in assay [1], in assay [3] and in assay [5] were 1.3 nM, 206 nM and 206 nM, respectively. In addition, the t½ (commonly how long it takes for the measured level to halve) in assay [2] worked out at 0.303 min. In addition, in assay [3], the koff (in general, the first-order rate constant of dissociation) came to 0.038 s⁻¹. For the same molecule, the on-rate constant (kon) (in general, the second-order rate constant of association) in assay [3] came out at 186000 M⁻¹ s⁻¹. For the same molecule, the “fold increase in affinity from wild type (DS-155)” value in assay [4] is more than 130 fold. Also, the EC50 (read off the curve) (usually the concentration needed to bring the measured effect to its halfway point) in assay [6] is approximately 0.9 µg/mL. In addition, the T1/2 in assay [7] is 37.9 min.
